This note sets out measurements from the Human Domainome abundance scans (Beltran et al. 2025).

± gives the uncertainty stated by the source.

To fix the notation:
B1: Proto-oncogene vav, residues 782 to 842; numbered along this chain, P15498 (parent)
chain: KYFGTAKARYDFCARDRSELSLKEGDIIKILNKKGQQGWWRGEIYGRVGWFPANYVEEDYS

Variants of B1 are the subject of the data set. Put plainly: abundance fitness (aPCA) (normalised: wild type 0, dead -1); higher = more abundant; growth selection in yeast, the domain comes from the species named. As to conditions: Homo sapiens.
In the case of KYFGTAKARYDFCARDRSELSLKEGDIIKILNKKGQQGWWRGEIYGRVGWFPANMVEEDYS [Y55M], the abundance fitness is -0.012 ± 0.078. As for KYFGTAKARYDFCARDRSELSLKEGDIIKILNKKGQQGWWRGEIYGRVGWFPANVVEEDYS [Y55V], the figure is -0.074 ± 0.046; as for KYFGTAKARYDFCARDRSELSLKEGDIIKILQKKGQQGWWRGEIYGRVGWFPANYVEEDYS [N32Q], 0.009 ± 0.12; as for KYFGTAKARYDFCARDRSELSQKEGDIIKILNKKGQQGWWRGEIYGRVGWFPANYVEEDYS [L22Q], -1.07 ± 0.41.

Regarding KYFGTAKARYDFCARDRSELSLKEGDIIKILNKKGQQGWWRGEIYGRVGTFPANYVEEDYS [W50T], the abundance fitness is -0.645 ± 0.17. As for KYFGTAKARYDFCARDRSELSLKEGDIIKILNKKGQQGWWRGEIYGRVGLFPANYVEEDYS [W50L], the figure is -0.341 ± 0.069; as for KYFGTFKARYDFCARDRSELSLKEGDIIKILNKKGQQGWWRGEIYGRVGWFPANYVEEDYS [A6F], -0.694 ± 0.11; as for KYFGTAKARYDFCARDRSELSLKEGDIIKILNKKGQQGFWRGEIYGRVGWFPANYVEEDYS [W39F], -0.354 ± 0.097. As for KYFGTAKARYDFCARDRSELSLKEGDIIKILNKKGQQGLWRGEIYGRVGWFPANYVEEDYS [W39L], the figure is -0.268 ± 0.055; as for KYFGTAKARYDFCARDRSELSLKEGDIIKILNKKGQQIWWRGEIYGRVGWFPANYVEEDYS [G38I], -0.911 ± 0.25. As for KYFGTAKARYDFCARDRSELSLKEGDIIKILNKKGQQLWWRGEIYGRVGWFPANYVEEDYS [G38L], the figure is -0.55 ± 0.11; as for KYFGTAKARYDFCARDRSELSLKEGDIIKILNKKGQQNWWRGEIYGRVGWFPANYVEEDYS [G38N], -0.309 ± 0.16.

Regarding KYFGTAKARYDFCARDRSELSLKEGDIIKILNKKGQQGWWRGEIYGRVGWFPANYVEEVYS [D59V], the abundance fitness was -0.009 ± 0.073. For KYFGTAKARYDFCARDRSELSLKEGDIIIILNKKGQQGWWRGEIYGRVGWFPANYVEEDYS [K29I] the value was -0.391 ± 0.15; for KYFGTAKARYDFCARDRSELSLKEGDIICILNKKGQQGWWRGEIYGRVGWFPANYVEEDYS [K29C], -0.467 ± 0.14.

As to KYFGTAKARYDFCARDRSELSLKEGDIIKILNKKGQQGWWRGEIYGRVGWFMANYVEEDYS [P52M], the abundance fitness was -0.38 ± 0.19. KYFGTAKARYDFCARDRSELSLKEGDIIKILNVKGQQGWWRGEIYGRVGWFPANYVEEDYS [K33V]: the abundance fitness is -0.41 ± 0.068. With KYFGTAKARYDFCARDRSELSLKEGDIIKILNTKGQQGWWRGEIYGRVGWFPANYVEEDYS [K33T], the abundance fitness was -0.377 ± 0.11. As to KYFGTAKARYDFCARDRSELSLWEGDIIKILNKKGQQGWWRGEIYGRVGWFPANYVEEDYS [K23W], the abundance fitness was -0.816 ± 0.2. For KYFGTAKARYDFCARDRSELSLAEGDIIKILNKKGQQGWWRGEIYGRVGWFPANYVEEDYS [K23A] the value was -0.222 ± 0.084; for KYFGTAKARYDFCARDRSELSLFEGDIIKILNKKGQQGWWRGEIYGRVGWFPANYVEEDYS [K23F], -0.585 ± 0.17. For KYFATAKARYDFCARDRSELSLKEGDIIKILNKKGQQGWWRGEIYGRVGWFPANYVEEDYS [G4A] the value was -0.163 ± 0.081; for KYFRTAKARYDFCARDRSELSLKEGDIIKILNKKGQQGWWRGEIYGRVGWFPANYVEEDYS [G4R], -0.183 ± 0.068; for KYFGTAKARYDFCARDRSELSLKEGDIIKILNKKGQQGWWRGEIYGRVGWFPANYVEPDYS [E58P], -0.169 ± 0.12. Regarding KYFGTAEARYDFCARDRSELSLKEGDIIKILNKKGQQGWWRGEIYGRVGWFPANYVEEDYS [K7E], the abundance fitness is -0.511 ± 0.12. As for KYFGTAWARYDFCARDRSELSLKEGDIIKILNKKGQQGWWRGEIYGRVGWFPANYVEEDYS [K7W], the figure is -0.407 ± 0.099; as for KYFGTAKAFYDFCARDRSELSLKEGDIIKILNKKGQQGWWRGEIYGRVGWFPANYVEEDYS [R9F], 0.05 ± 0.18; as for KYFGTAKARYDFCARDRSELSLKEGDIIKILNKKGQQGWWRGEIYGRVGWFPALYVEEDYS [N54L], -0.219 ± 0.065.

Consider KYFGTAKARYDFRARDRSELSLKEGDIIKILNKKGQQGWWRGEIYGRVGWFPANYVEEDYS [C13R], for which the abundance fitness was 0.025 ± 0.063.

On to KYFGTAKARYDFGARDRSELSLKEGDIIKILNKKGQQGWWRGEIYGRVGWFPANYVEEDYS [C13G], for which the abundance fitness is -0.285 ± 0.062.

With KYFGTAKARYDFNARDRSELSLKEGDIIKILNKKGQQGWWRGEIYGRVGWFPANYVEEDYS [C13N], the abundance fitness was determined as 0.123 ± 0.2. For KYMGTAKARYDFCARDRSELSLKEGDIIKILNKKGQQGWWRGEIYGRVGWFPANYVEEDYS [F3M], the abundance fitness is -0.054 ± 0.087. As for KYLGTAKARYDFCARDRSELSLKEGDIIKILNKKGQQGWWRGEIYGRVGWFPANYVEEDYS [F3L], the figure is 0.027 ± 0.057. With KYFGTAKARYDFCARDRSELSLKKGDIIKILNKKGQQGWWRGEIYGRVGWFPANYVEEDYS [E24K], the abundance fitness is -0.01 ± 0.11.

Take KYFGTAKARYDFCARDRSELSLKEGDIIKILNKKGQQGWWRGEIYGRVGWDPANYVEEDYS [F51D]: the abundance fitness is -0.951 ± 0.3. As for KYFGTAKARYDFCARDRSELSLKEGDIIKILNKKGQQGWWRGEIYGRVGWNPANYVEEDYS [F51N], the figure is -0.489 ± 0.33. KYFGTAKARYDFCARDRSELSLKEGDIIKILNKKGQQGWWRGYIYGRVGWFPANYVEEDYS [E43Y]: the abundance fitness is -0.682 ± 0.16. For KYFGTAKARYDQCARDRSELSLKEGDIIKILNKKGQQGWWRGEIYGRVGWFPANYVEEDYS [F12Q] the value was -0.553 ± 0.28; for KYFGTAKARYDICARDRSELSLKEGDIIKILNKKGQQGWWRGEIYGRVGWFPANYVEEDYS [F12I], -0.536 ± 0.25. On to KYFGTAKARYDHCARDRSELSLKEGDIIKILNKKGQQGWWRGEIYGRVGWFPANYVEEDYS [F12H], for which the abundance fitness is -0.029 ± 0.44. KYFGTAKARYDFCARDRSELSLKEGDIIKILNKKGQQGWWRGEIYGRVGWFPANYVIEDYS [E57I]: the abundance fitness was -0.073 ± 0.11. With KYFGTAKARYDFCARDRSELSLKEGDIIKILNKKGQQGWWRGEIYWRVGWFPANYVEEDYS [G46W], the abundance fitness was -0.853 ± 0.1. As for KYFGTAKARYDFCARDRSELSLKEGDIIKILNKKGQQGWWRGEIYCRVGWFPANYVEEDYS [G46C], the figure is -0.784 ± 0.17; as for KYFGTAKARYDFCARDRSELSLKEGDIIKIRNKKGQQGWWRGEIYGRVGWFPANYVEEDYS [L31R], -0.461 ± 0.094.
